# Data reported in US20060115482A1, “Modifications of histone proteins as indicators of cell proliferation and differentiation” (The Regents of the University of California, priority 2004, published 2006).
# Legend:
# [1] = molecular target: recombinant histone H2B (unphosphorylated) (Drosophila) (UniProt P02283)
# [2] = molecular target: native nucleosomes purified from 0-6 h Drosophila embryos (H2B in nucleosomes) (Drosophila) (UniProt P02283)
# [3] = molecular target: recombinant histone H2B (unphosphorylated) (Drosophila) (UniProt P02283); details: scale: % of the activity determined for TFIID, TAF1 and CTK
"turnover value for phosphorylation of H2B-S33 (in vitro kinase assay, scintillation counting) [1] [s⁻¹]","turnover value for phosphorylation of H2B-S33 (in vitro kinase assay, scintillation counting) [2] [s⁻¹]","kinase activity (radiolabeled H2B cut from the gel, scintillation counting) [3]",Substance
2.6,3.3,,"TFIID (endogenous Drosophila melanogaster TFIID, immunopurified) (from UniProt P51123) (enzyme)"
2.5,2.5,,"recombinant TAF1 (Flag(M2)-epitope tagged, immunopurified) (from UniProt P51123) (enzyme)"

# The remaining lines, values behind:
Substance,"turnover value for phosphorylation of H2B-S33 (in vitro kinase assay, scintillation counting) [1] [s⁻¹]","turnover value for phosphorylation of H2B-S33 (in vitro kinase assay, scintillation counting) [2] [s⁻¹]","kinase activity (radiolabeled H2B cut from the gel, scintillation counting) [3]"
TAF1 COOH-terminal kinase domain (CTK; amino acids 1496-2132) (from UniProt P51123) (enzyme),4.4,2.6,
CTKΔATP (CTK polypeptide lacking the ATP binding motifs) (from UniProt P51123) (enzyme),,,< 0.1
CTK(D1538A) (from UniProt P51123) (enzyme),,,< 0.1
CTKΔ1600 (CTK polypeptide lacking the S/T-kinase motif) (from UniProt P51123) (enzyme),,,< 0.1
